B1: Retinoblastoma-associated protein (Homo sapiens), P06400 (parent)
chain: MPPKTPRKTAATAAAAAAEPPAPPPPPPPEEDPEQDSGPEDLPLVRLEFEETEEPDFTALCQKLKIPDHVRERAWLTWEKVSSVDGVLGGYIQKKKELWGICIFIAAVDLDEMSFTFTELQKNIEISVHKFFNLLKEIDTSTKVDNAMSRLLKKYDVLFALFSKLERTCELIYLTQPSSSISTEINSALVLKVSWITFLLAKGEVLQMEDDLVISFQLMLCVLDYFIKLSPPMLLKEPYKTAVIPINGSPRTPRRGQNRSARIAKQLENDTRIIEVLCKEHECNIDEVKNVYFKNFIPFMNSLGLVTSNGLPEVENLSKRYEEIYLKNKDLDARLFLDHDKTLQTDSIDSFETQRTPRKSNLDEEVNVIPPHTPVRTVMNTIQQLMMILNSASDQPSENLISYFNNCTVNPKESILKRVKDIGYIFKEKFAKAVGQGCVEIGSQRYKLGVRLYYRVMESMLKSEEERLSIQNFSKLLNDNIFHMSLLACALEVVMATYSRSTSQNLDSGTDLSFPWILNVLNLKAFDFYKVIESFIKAEGNLTREMIKHLERCEHRIMESLAWLSDSPLFDLIKQSKDREGPTDHLESACPLNLPLQNNHTAADMYLSPVRSPKKKGSTTRVNSTANAETQATSAFQTQKPLKSTSLSLFYKKVYRLAYLRLNTLCERLLSEHPELEHIIWTLFQHTLQNEYELMRDRHLDQIMMCSMYGICKVKNIDLKFKIIVTAYKDLPHAVQETFKRVLIKEEEYDSIIVFYNSVFMQRLKTNILQYASTRPPTLSPIPHIPRSPYKFPSSPLRIPGGNIYISPLKSPYKISEGLPTPTKMTPRSRILVSIGESFGTSEKFQKINQMVCNSDRVLKRSAEGSNPPKPLKKLRFDIEGSDEADGSKHLPGESKFQQKLAEMTSTRTRMQKQKMNDSMDTSNKEEK
partner: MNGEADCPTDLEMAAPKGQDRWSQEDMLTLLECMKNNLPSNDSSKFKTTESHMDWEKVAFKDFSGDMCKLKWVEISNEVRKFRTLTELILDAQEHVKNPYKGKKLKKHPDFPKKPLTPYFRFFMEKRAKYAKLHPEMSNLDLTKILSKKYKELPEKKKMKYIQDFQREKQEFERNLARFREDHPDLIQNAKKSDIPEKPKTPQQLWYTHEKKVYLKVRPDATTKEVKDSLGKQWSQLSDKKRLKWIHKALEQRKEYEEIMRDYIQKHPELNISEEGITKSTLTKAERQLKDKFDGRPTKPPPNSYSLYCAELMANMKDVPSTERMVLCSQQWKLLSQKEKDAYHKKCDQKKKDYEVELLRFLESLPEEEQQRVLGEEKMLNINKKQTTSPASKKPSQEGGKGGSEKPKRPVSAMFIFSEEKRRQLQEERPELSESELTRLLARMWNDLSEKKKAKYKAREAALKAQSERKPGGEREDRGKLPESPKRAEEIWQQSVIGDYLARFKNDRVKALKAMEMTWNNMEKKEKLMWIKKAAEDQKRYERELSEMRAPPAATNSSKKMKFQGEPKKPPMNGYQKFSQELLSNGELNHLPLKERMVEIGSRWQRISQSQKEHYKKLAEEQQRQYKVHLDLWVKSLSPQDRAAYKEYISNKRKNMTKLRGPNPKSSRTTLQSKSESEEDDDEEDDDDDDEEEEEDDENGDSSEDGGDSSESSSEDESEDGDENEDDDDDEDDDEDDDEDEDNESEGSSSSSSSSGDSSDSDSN

Variants of: B1
Details: with ubf1_rat Ubtf

| effect of a mutation on the interaction | Variant |
| --- | --- |
| disrupting interaction | C706F |
